The target in data set [1] is T1, HsLARP6(70-300) R244E/R245E/R249E (Homo sapiens, UniProt Q9BRS8 70-300, R244E;R245E;R249E).
T1 sequence: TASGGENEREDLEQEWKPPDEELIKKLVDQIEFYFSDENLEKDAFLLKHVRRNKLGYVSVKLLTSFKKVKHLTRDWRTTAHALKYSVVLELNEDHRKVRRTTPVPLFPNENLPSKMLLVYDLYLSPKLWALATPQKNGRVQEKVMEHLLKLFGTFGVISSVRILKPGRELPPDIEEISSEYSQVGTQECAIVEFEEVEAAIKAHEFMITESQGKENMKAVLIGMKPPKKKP
The data set is described as follows: ITC; ITC: 20 mM Tris pH 7.25, 100 mM KCl, 5 mM MgCl2, 1 mM DTT, 298 K; protein titrated into RNA. Conditions: protein: recombinant; tags: N-terminal His6 (TEV-cleavable); stem-loop with internal bulge.

The next data set has as its target T2, HsLARP6 LaM (70-183) (Homo sapiens, UniProt Q9BRS8 70-183).
T2 sequence: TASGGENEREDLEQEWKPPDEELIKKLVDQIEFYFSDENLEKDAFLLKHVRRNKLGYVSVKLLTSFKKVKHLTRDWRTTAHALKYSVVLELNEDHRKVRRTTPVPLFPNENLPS
Described as above. Conditions: protein: recombinant; tags: N-terminal His6 (TEV-cleavable); stem-loop with internal bulge.

Another data set has as its target T3, HsLARP6(70-300) F135A (Homo sapiens, UniProt Q9BRS8 70-300, F135A).
T3 sequence: T1 sequence with F66A, E175R, E176R, E180R
The description is as above. Conditions: protein: recombinant; tags: N-terminal His6 (TEV-cleavable); stem-loop with internal bulge.

The target in a further data set is T4, HsLARP6(70-300) Y189A (Homo sapiens, UniProt Q9BRS8 70-300, Y189A).
T4 sequence: T1 sequence with Y120A, E175R, E176R, E180R
The description is as above. Conditions: protein: recombinant; tags: N-terminal His6 (TEV-cleavable); stem-loop with internal bulge.

A further data set concerns the target T5, HsLARP6(70-295) (Homo sapiens, UniProt Q9BRS8 70-295).
T5 sequence: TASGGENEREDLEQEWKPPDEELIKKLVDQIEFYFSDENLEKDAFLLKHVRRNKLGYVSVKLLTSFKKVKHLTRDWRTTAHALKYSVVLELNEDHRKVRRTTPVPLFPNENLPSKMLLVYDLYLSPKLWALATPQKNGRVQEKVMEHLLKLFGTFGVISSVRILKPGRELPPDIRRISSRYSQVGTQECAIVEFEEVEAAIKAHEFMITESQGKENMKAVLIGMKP
The description is as above. The settings on record: protein: recombinant; tags: N-terminal His6 (TEV-cleavable); stem-loop with internal bulge.

A further data set has as its target T6, HsLARP6(70-300) Y103A (Homo sapiens, UniProt Q9BRS8 70-300, Y103A).
T6 sequence: T1 sequence with Y34A, E175R, E176R, E180R
Described as above. Conditions: protein: recombinant; tags: N-terminal His6 (TEV-cleavable); stem-loop with internal bulge.

Data set [2] addresses T7, HsLARP6 La module (70-300) (Homo sapiens, UniProt Q9BRS8 70-300).
T7 sequence: T1 sequence with E175R, E176R, E180R
The data set is described as follows: ITC; 200 mM KCl; ITC: 20 mM Tris pH 7.25, 100 mM KCl, 5 mM MgCl2, 1 mM DTT, 298 K; protein titrated into RNA. The settings on record: protein: recombinant; tags: N-terminal His6, TEV-cleaved for initial ITC; stem-loop with internal bulge.

In another data set the target is T8, Interlinker chimera (Homo sapiens, UniProt Q9BRS8 70-178+P05455:101-111+181-300, internal_change).
T8 sequence: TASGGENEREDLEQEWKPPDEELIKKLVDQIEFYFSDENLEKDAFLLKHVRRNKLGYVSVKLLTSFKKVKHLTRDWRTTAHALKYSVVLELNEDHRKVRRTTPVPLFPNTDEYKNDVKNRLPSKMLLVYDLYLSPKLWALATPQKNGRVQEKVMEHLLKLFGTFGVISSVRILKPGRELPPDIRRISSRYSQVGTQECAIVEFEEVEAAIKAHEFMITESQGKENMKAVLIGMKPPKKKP
The data set is described as follows: ITC; text says 500-fold decrease; table gives about 14-fold; ITC: 20 mM Tris pH 7.25, 100 mM KCl, 5 mM MgCl2, 1 mM DTT, 298 K; protein titrated into RNA. Conditions: protein: recombinant; tags: N-terminal His6 (TEV-cleavable); stem-loop with internal bulge. On the technique in general: In ITC the heat of successive injections is recorded.

Substitutions are numbered along the chain they refer to.

Usually Kd stands for the free concentration of one partner at which half of the binding sites on the other are occupied at equilibrium, for simple one-to-one binding. On to CCACAAAGAGUCUACAUGUCUAGGGUCUAGACAUGUUCAGCUUUGUGG (structured_RNA) [48 nt RNA (collagen alpha1(I) 5' UTR SL)], for which the Kd in data set [1] was determined as 27 nM; with HsLARP6(70-300) Y189A, 59 nM; in the data set with HsLARP6(70-295) it was 77 nM; in data set [2] it was 50 nM; with Interlinker chimera, 667 nM. Moreover, the binding result in the data set with HsLARP6 LaM (70-183), in the data set with HsLARP6(70-300) F135A and in the data set with HsLARP6(70-300) Y103A was “no binding” each time.

The values are drawn from publication PMC4288179, “Synergic interplay of the La motif, RRM1 and the interdomain linker of LARP6 in the recognition of collagen mRNA expands the RNA binding repertoire of the La module”.
